One block for each substance: values may come before it.
Columns and labels:
Experiment in all cases: SEC; analytical SEC of the purified protein alone; oligomeric state in solution
[1] = target: LnmF
[2] = target: WsmD (Streptomyces sp. CB02120-2)
[3] = target: WsmE (Streptomyces sp. CB02120-2)
[4] = target: WsmR KS6 (Streptomyces sp. CB02120-2)
[5] = target: WsmS (Streptomyces sp. CB02120-2)

Substance: WsmD (enzyme)
stoichiometry N [2]: 2

Substance: WsmE (enzyme)
stoichiometry N [3]: 3

Substance: WsmS (enzyme)
stoichiometry N [5]: 2

More lines, now with the values ahead:

stoichiometry N [1]: 3
Substance: LnmF (enzyme)

stoichiometry N [4]: 2
Substance: WsmR KS6 (domain or fragment)

— PMC7618002
